Assay results published in patent US20040092720A1 (US Dept. of Health and Human Services, published 2004).
Values belong to the binder of their own block, whether it stands above or below them.

Target: T1, recombinant human IL-6 (human, UniProt P05231 30-212, labeled with radioactive iodine)
T1 construct: Labeled probe in solution, added to wells that carry the synthetic peptides; also called IL-6 ligand; Interleukin-6
Test: radioiodinated IL-6 on peptide array
Protocol: Synthetic peptide arrays were constructed in 96-well microtiter plates in accordance with the method set forth in WO 91/02714 (Saxinger), and used to test the binding of recombinant human IL-6 that had been labeled with radioactive iodine (radiolabeling by standard methods). After incubating the radiolabeled IL-6 ligand in a well with each synthetic peptide, a washing step was performed to remove unbound label, and the relative level of radioactivity remaining in each well of the plate was evaluated to determine the relative affinity of each peptide for IL-6 ligand.

B5: Peptide A3 (peptide)
peptide: AAGSHPSRWAGMGRRLLLR
Counts/minute bound: 8010 counts/minute

B11: Peptide A2 (peptide)
peptide: AAGSHPSRWAGMGRRLLLRS
Counts/minute bound: 9760 counts/minute

B12: Peptide B34 (peptide)
peptide: PRSTPSLTTKAVLLVRKFQNA
notes: alanine-scan variant of the domain II 21-mer
Counts/minute bound: 11400 counts/minute

B14: Peptide B44 (peptide)
peptide: PRSTPSLTTAAVLLVRKFQNS
notes: as for B12
Counts/minute bound: 19500 counts/minute

B15: Peptide B36 (peptide)
peptide: PRSTPSLTTKAVLLVRKFANS
notes: as for B12
Counts/minute bound: 10100 counts/minute

B16: Peptide B43 (peptide)
peptide: PRSTPSLTTKAALLVRKFQNS
notes: as for B12
Counts/minute bound: 7160 counts/minute

B17: Peptide B42 (peptide)
peptide: PRSTPSLTTKAVALVRKFQNS
notes: as for B12
Counts/minute bound: 3840 counts/minute

B18: Peptide B38 (peptide)
peptide: PRSTPSLTTKAVLLVRAFQNS
notes: as for B12
Counts/minute bound: 11100 counts/minute

B19: Peptide B40 (peptide)
peptide: PRSTPSLTTKAVLLARKFQNS
notes: as for B12
Counts/minute bound: 4540 counts/minute

B20: Peptide B35 (peptide)
peptide: PRSTPSLTTKAVLLVRKFQAS
notes: as for B12
Counts/minute bound: 13200 counts/minute

B21: Peptide B41 (peptide)
peptide: PRSTPSLTTKAVLAVRKFQNS
notes: as for B12
Counts/minute bound: 3760 counts/minute

B22: Peptide B39 (peptide)
peptide: PRSTPSLTTKAVLLVAKFQNS
notes: as for B12
Counts/minute bound: 10800 counts/minute

B23: Peptide B37 (peptide)
peptide: PRSTPSLTTKAVLLVRKAQNS
notes: as for B12
Counts/minute bound: 11600 counts/minute

Results, then the binder that gave them:

Counts/minute bound: 2650 counts/minute
B1: Peptide C6 (peptide)
peptide: SSFYRLRFELRYRAER

Counts/minute bound: 13800 counts/minute
B2: Peptide C2 (peptide)
peptide: SSFYRLRFELRYRAERSKTF

Counts/minute bound: 2170 counts/minute
B3: Peptide C9 (peptide)
peptide: SSFYRLRFELRYR

Counts/minute bound: 1350 counts/minute
B4: Peptide C10 (peptide)
peptide: SSFYRLRFELRY

Counts/minute bound: 4710 counts/minute
B6: Peptide C5 (peptide)
peptide: SSFYRLRFELRYRAERS

Counts/minute bound: 7620 counts/minute
B7: Peptide C4 (peptide)
peptide: SSFYRLRFELRYRAERSK

Counts/minute bound: 1030 counts/minute
B8: Peptide C12 (peptide)
peptide: SSFYRLRFEL

Counts/minute bound: 1820 counts/minute
B9: Peptide C7 (peptide)
peptide: SSFYRLRFELRYRAE

Counts/minute bound: 1130 counts/minute
B10: Peptide C11 (peptide)
peptide: SSFYRLRFELR

Counts/minute bound: 7680 counts/minute
B13: Peptide B46 (peptide)
peptide: PRSTPSLATKAVLLVRKFQNS
notes: as for B12

Counts/minute bound: 7490 counts/minute
B24: Peptide B45 (peptide)
peptide: PRSTPSLTAKAVLLVRKFQNS
notes: as for B12

Counts/minute bound: 8570 counts/minute
B25: Peptide B47 (peptide)
peptide: PRSTPSATTKAVLLVRKFQNS
notes: as for B12

Counts/minute bound: 8210 counts/minute
B26: Peptide C3 (peptide)
peptide: SSFYRLRFELRYRAERSKT

Counts/minute bound: 2510 counts/minute
B27: Peptide C8 (peptide)
peptide: SSFYRLRFELRYRA
